Source: paper PMC3182529 (Cell cycle (Georgetown, Tex.), 2008)

What was measured:
H3S10phG12P (1–20) = H3S10phG12P (1–20) (UniProt P68431 2-21, G12P, phosphoserine at 10); experiment: fluorescence polarisation
H3S10phK14acG12P (1–20) = H3S10phK14acG12P (1–20) (UniProt P68431 2-21, G12P, phosphoserine at 10; acetyl-lysine at 14); experiment: fluorescence polarisation

Kd (H3S10phG12P (1–20)): 19.9 µM
Kd (H3S10phK14acG12P (1–20)): 40 µM
B1: 14-3-3ζ (natural protein)
chain: MDKNELVQKAKLAEQAERYDDMAACMKSVTEQGAELSNEERNLLSVAYKNVVGARRSSWRVVSSIEQKTEGAEKKQQMAREYREKIETELRDICNDVLSLLEKFLIPNASQAESKVFYLKMKGDYYRYLAEVAAGDDKKGIVDQSQQAYQEAFEISKKEMQPTHPIRLGLALNFSVFYYEILNSPEKACSLAKTAFDEAIAELDTLSEESYKDSTLIMQLLRDNLTLWTSDTQGDEAEAGEGGEN
